Where two headings read alike, the source gives them in different places. Where no end group is shown, it is not given here. GST = glutathione S-transferase fusion tag
How the values were obtained:
[1] = molecular target: T1, SGIP1 μHD (residues 552 to 828) (Homo sapiens, UniProt Q9BQI5); assay: ITC of Eps15 fragments with the SGIP1 μHD; assay type: binding; settings: for Kd: 50 mM Tris-HCl pH 8.0, 50 mM NaCl, global fit of two runs
T1 construct: the SGIP1 μHD (residues 552 to 828); GST (N, cleaved yes); made in house; host or cells: Escherichia coli BL21-Gold (DE3) or Rosetta2
T1 sequence (Q9BQI5 552-828): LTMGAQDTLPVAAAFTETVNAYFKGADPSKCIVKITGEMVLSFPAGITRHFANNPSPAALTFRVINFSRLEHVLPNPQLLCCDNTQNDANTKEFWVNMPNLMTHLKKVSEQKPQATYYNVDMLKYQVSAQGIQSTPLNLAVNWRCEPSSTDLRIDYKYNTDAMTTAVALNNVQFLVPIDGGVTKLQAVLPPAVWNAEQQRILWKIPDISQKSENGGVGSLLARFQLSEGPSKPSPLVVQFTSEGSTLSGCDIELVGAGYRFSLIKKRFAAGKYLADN
Procedure: (§1) For the majority of the ITC experiments, the SGIP1 μHD, its mutants, or the FCHo1 μHD, in 50 mM Tris-HCl buffer (pH 8.0) containing 50 mM NaCl, was loaded in the sample cell, in a volume of 1.42 ml, and titrated with various Eps15-derived fragments or peptides in the same buffer, with an initial 5 μl injection and subsequent 10 μl injections, for a total of 25 injections. The titrations were performed while the samples were stirred at 310 r.p.m. at 25 °C. Each injection was followed by an interval of 4 min, to allow baseline stabilization. For the other ITC experiments indicated in Supplementary Table 2, the Eps15-derived fragments or peptides in the sample cell were titrated with the SGIP1 or FCHo1 μHD. All ITC experiments were performed on a VP-ITC microcalorimeter (MicroCal, LLC) and repeated twice, and the data were processed with the program NITPIC[42]. The two data sets from each ITC experiment were analyzed by global weighted least-squares fitting with the program SEDPHAT[43]. Figures for the ITC data were created with the program GUSSI (http://biophysics.swmed.edu/MBR/software.html). To obtain the values of the traditional stoichiometric parameter N in our ITC data analyses (Supplementary Table 2), we used the values of the parameters of the incompetent fractions of proteins and ligands. […] The values of the incompetent fractions are between 0 and 1, whereas the other parameter affecting the traditional parameter N, the number of sites, was fixed as 1 and 2, for the single- and two-site models, respectively. Thus, in the two-site model, the values of N for the first and second sites are identical in our ITC data analyses (Supplementary Table 2).

[2] = molecular target: T2, FCHo1 µHD (residues 623 to 889) (Homo sapiens, UniProt O14526); assay: ITC of Eps15 fragments with the FCHo1 μHD; assay type: binding; settings: for Kd / -TΔS / ΔG / ΔH: 25 °C; for Kd: 50 mM Tris-HCl pH 8.0, 50 mM NaCl, global fit of two runs; for Kd / -TΔS / ΔG / ΔH / N (binding ratio of Eps15 fragment to FCHo1 μHD): single-site model; for Kd / ΔH / N (binding ratio of Eps15 fragment to FCHo1 μHD): ± 68.3% confidence interval
T2 construct: GST (N, cleaved yes); made in house; host or cells: Escherichia coli (as for the SGIP1 μHD)
T2 sequence (O14526 623-889): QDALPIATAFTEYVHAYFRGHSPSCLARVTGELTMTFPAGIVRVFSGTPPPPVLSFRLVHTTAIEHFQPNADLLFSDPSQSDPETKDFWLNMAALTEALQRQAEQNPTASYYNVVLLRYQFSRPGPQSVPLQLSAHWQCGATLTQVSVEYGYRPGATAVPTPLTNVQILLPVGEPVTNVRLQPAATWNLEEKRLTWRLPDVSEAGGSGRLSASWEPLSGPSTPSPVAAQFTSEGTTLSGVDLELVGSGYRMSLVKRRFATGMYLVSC
Procedure: as §1

[3] = molecular target: α-adaptin appendage domain (residues 711 to 955); assay: ITC of Eps15 fragments with the α-adaptin appendage domain; assay type: binding, human
[4] = molecular target: appendage domain of human α-adaptin, residues 711 to 955 (human) (UniProt O95782); assay: ITC; µHD, µHD mutant or α-adaptin appendage domain in the sample cell, titrated with the Eps15 fragment or peptide; 50 mM Tris-HCl (pH 8.0), 50 mM NaCl, 25 °C; VP-ITC; two data sets fitted globally (NITPIC, SEDPHAT); single-site model
[5] = molecular target: T3, SGIP1 µ homology domain (µHD), residues 552 to 828 (human, UniProt Q9BQI5-1 552-828); assay: as above; settings: both partners purified
T3 construct: pGEX-6P-1 construct cut with 3C protease; also called SGIP1 µHD; human SGIP1 µHD (aa552–828); source: E. coli BL21-Gold (DE3) or Rosetta2, purified (Glutathione Sepharose 4B, 3C protease cleavage, Superdex 200)
T3 sequence (looked up): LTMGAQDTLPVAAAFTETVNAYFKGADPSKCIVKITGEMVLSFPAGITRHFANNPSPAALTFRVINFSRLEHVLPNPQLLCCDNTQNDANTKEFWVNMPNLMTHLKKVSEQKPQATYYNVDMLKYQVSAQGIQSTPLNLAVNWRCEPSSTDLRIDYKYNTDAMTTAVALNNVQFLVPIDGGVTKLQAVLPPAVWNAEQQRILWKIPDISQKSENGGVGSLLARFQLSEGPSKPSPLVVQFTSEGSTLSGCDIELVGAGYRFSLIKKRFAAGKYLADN

[6] = molecular target: T4, FCHo1 µ homology domain (µHD), residues 623 to 889 (human, UniProt O14526-1 623-889); assay: as above; settings: both partners purified
T4 construct: also called FCHo1 µHD; human FCHo1 µHD (aa623–889); source: E. coli, expressed and purified in the same manner as the SGIP1 µHD
T4 sequence (looked up): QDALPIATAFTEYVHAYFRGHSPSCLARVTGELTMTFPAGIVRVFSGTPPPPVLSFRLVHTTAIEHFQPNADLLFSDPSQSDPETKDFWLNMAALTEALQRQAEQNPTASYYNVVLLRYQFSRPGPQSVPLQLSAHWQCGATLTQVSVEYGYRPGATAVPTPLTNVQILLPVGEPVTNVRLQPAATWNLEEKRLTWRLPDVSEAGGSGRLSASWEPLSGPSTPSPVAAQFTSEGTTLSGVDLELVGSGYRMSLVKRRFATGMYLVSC

[7] = molecular target: T5, SGIP1 μ homology domain (residues 552 to 828) (human, UniProt Q9BQI5-1 552-828); assay: ITC; VP-ITC, 25 °C, 50 mM Tris-HCl pH 8.0, 50 mM NaCl; for the majority the μHD (SGIP1, its mutants or FCHo1) in the cell, titrated with Eps15 fragments or peptides, for others the reverse (Supplementary Table 2); repeated twice, global fit with SEDPHAT, single-site or two-site model; settings: both partners purified
T5 construct: A SeMet-substituted form (E. coli B834(DE3)) was used only for the structure of the domain alone; also called SGIP1 μHD; μHD; source: E. coli BL21-Gold (DE3) or Rosetta2, purified (Glutathione Sepharose, 3C protease cleavage on the column, Superdex 200)
T5 sequence (looked up): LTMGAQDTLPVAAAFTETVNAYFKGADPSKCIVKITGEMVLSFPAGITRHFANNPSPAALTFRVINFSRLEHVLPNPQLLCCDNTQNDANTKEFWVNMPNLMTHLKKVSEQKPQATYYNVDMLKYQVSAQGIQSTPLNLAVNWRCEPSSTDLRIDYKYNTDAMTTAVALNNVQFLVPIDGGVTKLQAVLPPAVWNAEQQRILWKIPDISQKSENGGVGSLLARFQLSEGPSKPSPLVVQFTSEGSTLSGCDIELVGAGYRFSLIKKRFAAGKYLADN

[8] = 25 °C, fragment in cell titrated with μHD, single-site model
[9] = 25 °C, fragment in cell titrated with μHD, two-site model, first site
[10] = 25 °C, fragment in cell titrated with μHD, two-site model, second site
[11] = FCHo1 μHD in cell titrated with fragment
[12] = fragment in cell titrated with μHD (Experiment 37a)

## Eps15-618–654: Eps15 fragment, 37-residue region containing six consecutive DPF motifs; high-affinity binding site (DFFQSDPFVGSDPFKDDPFGKIDPFGGDPFKGSDPFA; UniProt P42566 618-654, looked up, fragment)
[1]; 25 °C, Eps15 fragment in cell titrated with SGIP1 μHD, two-site model, second site, 68.3% confidence interval, read-out: Kd, second site
  Kd: 55500 nM
[1]; 25 °C, Eps15 fragment in sample cell titrated with SGIP1 μHD, single-site model, ± 68.3% confidence interval, read-out: Kd
  Kd: 420 ± 250 nM
[1]; [8]
  -TΔS: 0.278 kcal/mol
  ΔG: -8.704 kcal/mol
[1]; 25 °C, fragment in cell titrated with μHD, single-site model, ± 68.3% confidence interval
  ΔH: -8.982 ± 0.639 kcal/mol
[1]; [9]
  -TΔS: -2.345 kcal/mol
  ΔG: -9.805 kcal/mol
[1]; 25 °C, fragment in cell titrated with μHD, two-site model, first site, ± 68.3% confidence interval
  ΔH: -7.46 ± 0.168 kcal/mol
[1]; [10]
  -TΔS, second site: 3.722 kcal/mol
  ΔG, second site: -5.906 kcal/mol
[1]; 25 °C, fragment in cell titrated with μHD, two-site model, second site, 68.3% confidence interval
  ΔH, second site: -9628 (< -6103) cal/mol
[1]; fragment in cell titrated with μHD, single-site model, ± 68.3% confidence interval
  N (binding ratio of Eps15 fragment to μHD): 0.81 ± 0.04
[1]; fragment in cell titrated with μHD, two-site model, first site (N identical for both sites), ± 68.3% confidence interval
  N (binding ratio of Eps15 fragment to μHD): 0.88 ± 0.02
[1]; fragment in cell titrated with μHD, two-site model, second site (N identical for both sites), ± 68.3% confidence interval
  N, second site: 0.88 ± 0.02
[1]; human SGIP1 µHD (aa552–828), Supplementary Table 3, This study
  Strength of affinity: high
[2]
  Kd for the FCHo1 μHD (in words): in the nanomolar range
[2]; Eps15 fragment in cell titrated with μHD (Experiment 37a)
  Kd: 190 ± 90 nM
[2]; [11]
  Kd: 270 ± 100 nM
  -TΔS: 0.672 kcal/mol
  ΔG: -8.966 kcal/mol
  ΔH: -9.638 ± 0.381 kcal/mol
  N (binding ratio of Eps15 fragment to FCHo1 μHD): 0.59 ± 0.02
[2]; [12]
  -TΔS: -1.572 kcal/mol
  ΔG: -9.158 kcal/mol
  ΔH: -7.586 ± 0.398 kcal/mol
  N (binding ratio of Eps15 fragment to FCHo1 μHD): 0.70 ± 0.03
[2]; human FCHo1 µHD (aa623–889), Supplementary Table 3, This study
  Strength of affinity: high

## Eps15-661–720: Eps15 fragment spanning residues 661 to 720, 4 DPF motifs (QSTDPFATSSTDPFSAANNSSITSVETLKHNDPFAPGGTVVAASDSATDPFASVFGNESF; UniProt P42566 661-720, looked up, fragment)
[3]
  Kd for the α-adaptin appendage domain (in words): in the nanomolar range
[3]; 25 °C, appendage domain titrated with Eps15 fragment, single-site model, global fit of two runs, ± 68.3% confidence interval
  Kd: 270 ± 130 nM
[3]; 25 °C, single-site model
  -TΔS: 5.961 kcal/mol
  ΔG: -8.97 kcal/mol
[3]; 25 °C, single-site model, ± 68.3% confidence interval
  ΔH: -14.931 ± 1.892 kcal/mol

B1: Eps15-661–790 (domain or fragment)
chain: GPLGSYQSTDPFATSSTDPFSAANNSSITSVETLKHNDPFAPGGTVVAASDSATDPFASVFGNESFGGGFADFSTLSKVNNEDPFRSATSSSVSNVVITKNVFEETSVKSEDEPPALPPKIGTPTRPCPLPPGKRSW
[4]
  Kd: 690 nM
  stoichiometry N: 1.19

B2: Eps15-661–720 (domain or fragment)
chain: GPLGSYQSTDPFATSSTDPFSAANNSSITSVETLKHNDPFAPGGTVVAASDSATDPFASVFGNESF
[4]
  Kd: 270 nM
  stoichiometry N: 0.47

B3: Eps15-640–654 (peptide)
peptide: Ac-YDPFGGDPFKGSDPFA-NH2
notes: artificial N-terminal Tyr; source: synthetic peptide (Eurofins Genomics)
[5]
  Kd: 2900 nM
  stoichiometry N: 0.66
[6]
  stoichiometry N: 0.64

B4: GST-Eps15-628–654 (domain or fragment, human)
chain: {GST}-SDPFKDDPFGKIDPFGGDPFKGSDPFA
notes: source: E. coli, purified (Glutathione Sepharose 4B, glutathione elution, Superdex 200); not shown: GST, N-terminal, kept
[5]
  Kd: 1000 nM
  stoichiometry N: 0.86

B5: Eps15-628–654 (peptide)
peptide: Ac-YSDPFKDDPFGKIDPFGGDPFKGSDPFA-NH2
notes: as for B3
[5]
  stoichiometry N: 0.67

B6: Eps15-662–676 (peptide)
peptide: Ac-YSTDPFATSSTDPFSA-NH2
notes: as for B3
[5]
  Kd: 125000 nM

B7: GST-Eps15-628–644 (domain or fragment, human)
chain: {GST}-SDPFKDDPFGKIDPFGG
notes: as for B4
[5]
  Kd: 650 nM
  stoichiometry N: 0.92

B8: Eps15-618–648 (domain or fragment, human, UniProt P42566-1 618-648, looked up)
chain: DFFQSDPFVGSDPFKDDPFGKIDPFGGDPFK
notes: source: E. coli, purified in the same manner as for the SGIP1 μHD
[7]
  Kd: ~400 nM

Source: paper PMC4731787, “Structural basis for the recognition of two consecutive mutually interacting DPF motifs by the SGIP1 μ homology domain” (Scientific Reports, 2016)
